From IntAct's records for PubMed 21360678

B1: Serine/threonine-protein phosphatase 5 (Homo sapiens), P53041 (parent)
chain: MAMAEGERTECAEPPRDEPPADGALKRAEELKTQANDYFKAKDYENAIKFYSQAIELNPSNAIYYGNRSLAYLRTECYGYALGDATRAIELDKKYIKGYYRRAASNMALGKFRAALRDYETVVKVKPHDKDAKMKYQECNKIVKQKAFERAIAGDEHKRSVVDSLDIESMTIEDEYSGPKLEDGKVTISFMKELMQWYKDQKKLHRKCAYQILVQVKEVLSKLSTLVETTLKETEKITVCGDTHGQFYDLLNIFELNGLPSETNPYIFNGDFVDRGSFSVEVILTLFGFKLLYPDHFHLLRGNHETDNMNQIYGFEGEVKAKYTAQMYELFSEVFEWLPLAQCINGKVLIMHGGLFSEDGVTLDDIRKIERNRQPPDSGPMCDLLWSDPQPQNGRSISKRGVSCQFGPDVTKAFLEENNLDYIIRSHEVKAEGYEVAHGGRCVTVFSAPNYCDQMGNKASYIHLQGSDLRPQFHQFTAVPHPNVKPMAYANTLLQLGMM
partner: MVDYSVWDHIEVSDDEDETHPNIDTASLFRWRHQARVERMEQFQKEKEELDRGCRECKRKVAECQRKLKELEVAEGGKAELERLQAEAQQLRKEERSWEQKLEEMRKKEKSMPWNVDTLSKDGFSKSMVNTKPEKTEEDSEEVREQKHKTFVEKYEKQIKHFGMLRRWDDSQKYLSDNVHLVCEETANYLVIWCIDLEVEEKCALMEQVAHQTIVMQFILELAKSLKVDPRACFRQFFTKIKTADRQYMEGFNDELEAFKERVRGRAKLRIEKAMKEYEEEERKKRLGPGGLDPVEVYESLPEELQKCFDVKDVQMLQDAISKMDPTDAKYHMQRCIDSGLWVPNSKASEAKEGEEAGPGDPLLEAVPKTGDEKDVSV

Variants of: B1
Settings: with cdc37_human CDC37, Q16543

Row | Variant | effect of a mutation on the interaction
1 | K97A;R101A | disrupting interaction
